Experimental data reported in the Immune Epitope Database (IEDB).
pKd: −log10 of the molar value.

What was measured:
Assay in all cases: IEDB peptide-MHC binding, purified MHC/competitive/radioactivity; filed as Kd, often an IC50 or EC50 that approximates it; ≥ and ≤ were set here for values at or beyond the usual limits of such assays
[1] = biological target: HLA-A*02:02
[2] = biological target: HLA-A*02:06
[3] = biological target: HLA-A*02:03
[4] = source organism: Vaccinia virus WR
[5] = source organism: Dengue virus 3 Martinique/1243/1999
[6] = source organism: HIV-1 M:B_ARV2/SF2
[7] = source organism: Dengue virus 1 Brazil/97-11/1997
[8] = source organism: Mammarenavirus brazilense
[9] = source organism: SARS coronavirus Tor2

Sequence | pKd [1, 4] | pKd [2, 4] | pKd [3, 4] | also measured
DMLKLFTHDI | 6.71 | 5.53 | 7.79 | 
TLILAPTRVV |  |  |  | pKd ([3]; source organism: Dengue virus 2 Jamaica/1409/1983): 7.37
RLYDYFTRVT | 5.61 | 6.16 | 6.26 | 
YLGHSAGFTA | 7.79 | 6.84 | 7.06 | 
ELPYVGDTSM | 5.38 | ≤ 4.52 | 4.85 | 
KLREVYTQL |  |  |  | pKd [3, 5]: 7.41
STSNVITDQT | ≤ 4.27 | 4.97 | ≤ 4.15 | 
MAFILGIIIT | 5.33 | 4.99 | 5.55 | 
GTIILNKIV | 5.92 | 5.84 | 5.47 | 
LTFGWCFKLV |  |  |  | pKd [1, 6]: 6.04; pKd [2, 6]: 7.70; pKd [3, 6]: 6.78
MMNITRLEVI | 7.07 | 6.87 | 7.58 | 
LMAMDLGEL |  |  |  | pKd ([3]; source organism: Dengue virus 2 Peru/IQT2913/1996): 8.17
TISGNIYSA | 7.07 | 6.75 | 7.72 | 
TLATGPLTTL |  |  |  | pKd [3, 7]: 8.03
IMFMLIFNV | 9.84 | 7.88 | 7.99 | 
LLALNDMGKV |  |  |  | pKd [3, 5]: 7.82
SNPNLFWAV |  |  |  | pKd [1, 8]: 6.77; pKd [2, 8]: 7.46; pKd [3, 8]: 5.21
TAEQLSKYV | 5.28 | ≤ 4.62 | 5.05 | 
YVVTTDISEM |  |  |  | pKd [2, 7]: 5.94
ALALEQYGI | 9.16 | 6.26 | 7.40 | 
FAVGLLFRRL |  |  |  | pKd [2, 7]: 7.69
YAVLSEYETM | 6.80 | 5.92 | 5.02 | 
KVIKLVKSLV | 4.84 | 5.67 | 4.87 | 
LVIGVAFLAV |  |  |  | pKd [1, 9]: 5.57; pKd [2, 9]: 8.59; pKd [3, 9]: 7.65
SILSLETVKM | 6.69 | 6.09 | 6.34 | 
LTHGADPNA | 4.71 | ≤ 4.53 | 4.98 | 
ATFRDMLLNV | 8.15 | 8.52 | 9.40 | 
LALWDSNFFT | 4.96 | 5.90 | 4.70 | 
ILLILSCIFA | 6.35 | 6.31 | 6.51 | 
QLEELEDEL |  |  |  | pKd ([3]; source organism: Homo sapiens): ≤ 4.16
